Primed or numbered codes have the meaning given here. Where no end group is shown, it is not given here. FAM = carboxyfluorescein fluorophore label; 5FAM′ = 5-carboxyfluorescein
Columns and labels:
[1] = system: P. aeruginosa clinical isolate strains; assay: cleavage of FRET-paired substrates by clinical isolate supernatants; type: biochemical, Pseudomonas aeruginosa; conditions: five clinical isolate strains
Procedure: P. aeruginosa strains isolated from de-identified clinical samples were generously provided by Dr. Deborah Hung, MD, PhD (Massachusetts General Hospital). Cultures of each were grown in LB broth overnight, then were subcultured in fresh LB and each strain grown to OD-matched mid log phase (OD600˜0.5). Supernatants were collected by centrifugation and substrate cleavage was monitored as described above.

MMP13 = MMP13 (Mus musculus, UniProt P33435); assay: recombinant host protease cleavage assay; type: biochemical
Procedure: (§1) The specificity of LAS and ELA for P. aeruginosa cleavage was tested by collecting supernatants from PA01 or Staphylococcus aureus cultures and incubating them with FRET-paired substrates LAS-Q and ELA-Q in 384 well plates. […] To investigate whether the LAS and ELA substrates are also susceptible to cleavage by host proteases, each was incubated with recombinant mouse proteases.
(§2) Supernatant from PA01 and S. aureus were collected and added to substrates in 384 well plates and dequenching of FAM was monitored at 37° C. (Tecan). Fluorescence change at 30 minutes was reported. For recombinant protease assays, enzyme was added to the substrates in enzyme-specific buffer (MMP7 & 9 buffer: 50 mM Tris, 150 mM NaCl, 5 mM CaCl2), […], pH 7.5; Thrombin: PBS; NE: 100 mM HEPES, 500 mM NaCl, 0.05% Tween 20) in a 384 well plate for time-lapse fluorimetry to measure dequenching at 37° C. (Tecan).

thrombin = thrombin (Mus musculus, UniProt P19221); assay: recombinant host protease cleavage assay; type: biochemical
Procedure: as §1, §2

MMP7 = molecular target: T1, MMP7 (Mus musculus, UniProt Q10738); assay: recombinant host protease cleavage assay; type: biochemical
T1 sequence (Q10738 95-264): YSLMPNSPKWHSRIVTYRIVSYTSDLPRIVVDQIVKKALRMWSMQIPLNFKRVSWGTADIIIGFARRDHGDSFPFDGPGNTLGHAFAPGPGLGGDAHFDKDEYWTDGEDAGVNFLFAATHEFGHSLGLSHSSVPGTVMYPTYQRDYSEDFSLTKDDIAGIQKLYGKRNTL
Procedure: as §1, §2

PA01 supernatant = assay: cleavage of FRET-paired substrates by bacterial supernatant; type: biochemical, Pseudomonas aeruginosa; conditions: PA01 culture supernatant, fluorescence change at 30 minutes
Procedure: as §1, §2

recombinant human MMP13 = molecular target: T2, recombinant human MMP13 (Homo sapiens, UniProt P45452); assay: cleavage of aerosolized fluorogenic nanosensor by MMP13; type: biochemical; conditions: 50 nM MMP13, 5 μM nanosensor
T2 construct: purchased Enzo
Procedure: As a step toward developing a more clinically relevant delivery method, particle durability and biodistribution after aerosolization were also characterized.
Analysis of nanoparticle stability and protease cleavage susceptibility following aerosolization used […] 250 μM PEG-840 kDa scaffold (FIGS. 22B-22E) or 5 μM PPQ5 PEG-840 kDa nanosensors (FIG. 22F). Protease cleavage assays of aerosolized nanoparticles used 50 nM of recombinant human MMP13 (Enzo).

[2] = urinary filtration of mass-encoded free reporters after IT or IV administration; type: in vivo, mice; conditions: doses 2.5 ng to 25 ng, urine at 1 hour
Description: To enable detection of a broad spectrum of disease-associated proteases in vivo, the 14 peptides of the LUAD substrate panel were appended with mass-encoded reporters (PP1-14; Table 3). Following substrate proteolysis, the reporters diffuse away from the nanoparticle scaffold and are sized so as to be able to efficiently cross into the bloodstream, where they can be concentrated into the urine by glomerular filtration (FIG. 1B). As previously described (Kwong et al., Nat Biotechnol 31, 63-70, 2013), variable labeling of the 14-mer Glu-Fibrinopeptide B (Glu-Fib) with stable isotope-labeled amino acids was used to uniquely barcode each of 14 peptide substrates. Multiple reaction monitoring via a liquid chromatography triple quadrupole mass spectrometer (LC-MS/MS) enables quantitative assessment of peptide-liberated urinary reporter concentration within a broad linear range (1-1000 ng/mL, FIG. 8A). Using mass-encoded free reporters, the filtration of Glu-Fib reporters into the urine after IT or IV administration was assessed and strong linearity of the MS assay for both routes of delivery for input doses between 2.5 ng and 25 ng (R^2=1.00, FIG. 8B) was found for both routes of delivery (sloperIT=0.075 ng^−1, slopeIV=0.077 ng^−1; FIG. 8B).
Liquid chromatography/tandem mass spectrometry was performed by Syneos Health (Princeton, NJ) using a Sciex 6500 triple quadrupole instrument. […]

LAS-Q: FRET-paired (FAM fluorophore, Dabcyl quencher) substrate for P. aeruginosa protease LasA; includes SEQ ID NO: 45 (GLGGGAGK(FAM); also: Dabcyl quencher, site not given here)
strains whose supernatant gave significant cleavage [1]: 3 of the 5 strains
cleavage by recombinant protease (MMP13): resist cleavage
cleavage by recombinant protease (thrombin): resist cleavage
cleavage by recombinant protease (MMP7): resist cleavage
cleavage by supernatant (fluorescence signal) (PA01 supernatant): greater selectivity for cleavage of LAS-Q by PA01

PEG-PPQ5: fluorogenic nanosensor, PPQ5 on PEG-840 kDa ({5FAM′}-GGPLGVRGKKC; not fully specified (residue 10); printed as GGPLGVRGKK(CPQ2)-PEG2-C; also: on PEG-840 kDa carrier, site not given here)
sensitivity to in vitro cleavage pre- versus post-aerosolization (recombinant human MMP13): equally sensitive

Glu-Fib reporters: mass-encoded free reporters, stable isotope-labeled variants of 14-mer Glu-Fibrinopeptide B
slope of urinary reporter signal versus input dose ([2]; IT administration): 0.075 ng⁻¹
slope of urinary reporter signal versus input dose ([2]; IV administration): 0.077 ng⁻¹
